These results are taken from the supplement of paper PMC10567573.

± gives the standard deviation.

This data set is described as follows: protein stability index of a GFP-peptide fusion (GPS, HEK-293T) (PSI 1-6); higher = more stable. The settings on record: c terminus: a fixed tail appended.
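Also: 24-mer peptide tiles fused after GFP, lentivirally expressed, FACS-sorted into six equal bins by GFP/DsRed ratio, decoded by Illumina sequencing, PSI is the read-weighted mean bin number.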

With AAAGEQASGAEAEPGPAGPPPPPS [BTBD1], the protein stability index amounted to 5.446 ± 0.021 (treatment: DMSO) and 5.52 ± 0.19 (treatment: MLN4924 1 uM, 8 h).

With AAAYTFLQRNPKHELTAKYLNYYQ [P3H4], the protein stability index came out at 2.25 ± 0.23 (treatment: DMSO) and 2 ± 0.33 (treatment: MLN4924 1 uM, 8 h).

For the sequence AAGGDGELGSPLRRSISSSRSENV [PSD2], the protein stability index by setting is: (treatment: DMSO) 5.07 ± 0.11; (treatment: MLN4924 1 uM, 8 h) 5.1 ± 0.19.

Regarding AAGTHDGSVYFWATPRQVPSLQHL [WSB1], the protein stability index was found to be 2.52 ± 0.22 (treatment: DMSO) and 2.64 ± 0.21 (treatment: MLN4924 1 uM, 8 h).

Regarding AAIDNGLAFPLKHPDSWRAYPFYW [PI4K2A], the protein stability index runs as follows: (treatment: DMSO) 2.27 ± 0.18; (treatment: MLN4924 1 uM, 8 h) 2.26 ± 0.2.

Regarding AAIFKIYLSCLEELMKCQIIYPRQ [TRIP13], the protein stability index by setting is: (treatment: DMSO) 3.08 ± 0.43; (treatment: MLN4924 1 uM, 8 h) 3.21 ± 0.17.

Turning to AAKPAASITSKPATLTTTSATSKL [ZNF207], the protein stability index is, setting by setting: (treatment: DMSO) 4.6 ± 0.12; (treatment: MLN4924 1 uM, 8 h) 4.6 ± 0.17.

In the case of AAPFPSPAPASPAISVVGVSAGGH [TFE3], the protein stability index is 4.24 ± 0.35 (treatment: DMSO) and 4.16 ± 0.38 (treatment: MLN4924 1 uM, 8 h).

On to AARAAGRDVAAEAVARSPKRPAWG [POMT2], for which the protein stability index runs as follows: (treatment: DMSO) 4.1 ± 0.29; (treatment: MLN4924 1 uM, 8 h) 4.29 ± 0.51.

Turning to ACRFTKCLRVGMLKEGVRLDRVRG [ESRRA], the protein stability index runs as follows: (treatment: DMSO) 2.31 ± 0.17; (treatment: MLN4924 1 uM, 8 h) 2.25 ± 0.19.

As for ACTMDQARGLDDAAARGGQCPGLG [ZBED3], the protein stability index runs as follows: (treatment: DMSO) 4.54 ± 0.18; (treatment: MLN4924 1 uM, 8 h) 4.51 ± 0.14.

As for ADKCVCGPSAPPAPTPPSLSQRVM [TIAF1], the protein stability index amounted to 4.15 ± 0.24 (treatment: DMSO) and 4.42 ± 0.35 (treatment: MLN4924 1 uM, 8 h).

For ADLSQKSPELQEEFGYNAETQKLL [ARFIP2], the protein stability index is 4.95 ± 0.37 (treatment: DMSO) and 5.14 ± 0.17 (treatment: MLN4924 1 uM, 8 h).

ADTGRIHRFVEKPQVFVSNKINAG [GMPPB]: the protein stability index came out at 3.46 ± 0.32 (treatment: DMSO) and 3.84 ± 0.18 (treatment: MLN4924 1 uM, 8 h).

In the case of ADTNSDRLFTVNDVKVGGSKYGII [DCAF4], the protein stability index reads like this: (treatment: DMSO) 3.01 ± 0.21; (treatment: MLN4924 1 uM, 8 h) 3.02 ± 0.28.

Turning to AGEREDLWAGSKGKEFGYFPRDAV [MIA2], the protein stability index came out at 3.47 ± 0.15 (treatment: DMSO) and 3.86 ± 0.51 (treatment: MLN4924 1 uM, 8 h).

As for AGGIRESKESSKEKKLTVRQDLED [C22orf31], the protein stability index runs as follows: (treatment: DMSO) 5.56 ± 0.12; (treatment: MLN4924 1 uM, 8 h) 5.48 ± 0.3.

For AGKWRSYKGELFDKTPVLLTDYPV [MYORG], the protein stability index runs as follows: (treatment: DMSO) 2.32 ± 0.21; (treatment: MLN4924 1 uM, 8 h) 2.43 ± 0.25.

For the sequence AGLVHVKQCIVAHPVNPPYYIPLV [CRYL1], the protein stability index is, setting by setting: (treatment: DMSO) 2.46 ± 0.33; (treatment: MLN4924 1 uM, 8 h) 2.36 ± 0.54.

As for AGPGAPEPLAEGAAAEFSSLLRRI [SLC35F2], the protein stability index is, setting by setting: (treatment: DMSO) 3.9 ± 0.32; (treatment: MLN4924 1 uM, 8 h) 3.77 ± 0.46.

In the case of AHSNEILIFSVQPKSLVRLSLEAV [KLHDC2], the protein stability index was 3.01 ± 0.48 (treatment: DMSO) and 2.6 ± 0.12 (treatment: MLN4924 1 uM, 8 h).

For AIAMYFLPPSPRFLVMKGQEGAAS [SLC2A12], the protein stability index was 2.17 ± 0.53 (treatment: DMSO) and 1.97 ± 0.31 (treatment: MLN4924 1 uM, 8 h).

As for AIELQGHNDRVQALSYAQHTRQLI [WDFY2], the protein stability index is, setting by setting: (treatment: DMSO) 3.1 ± 0.36; (treatment: MLN4924 1 uM, 8 h) 3.15 ± 0.41.

Regarding AIGRVRVLEEQLVKAKEQIENYKK [FUT8], the protein stability index is, setting by setting: (treatment: DMSO) 4.03 ± 0.16; (treatment: MLN4924 1 uM, 8 h) 4.28 ± 0.27.

Consider AILMKAYQRFRQKSKASFLLLASG [PTGFR], for which the protein stability index runs as follows: (treatment: DMSO) 3.41 ± 0.86; (treatment: MLN4924 1 uM, 8 h) 2.83 ± 0.41.

In the case of AKAPPTACYAGAAPAPSQVKSKAK [CEBPB], the protein stability index is 5.36 ± 0.19 (treatment: DMSO) and 5.21 ± 0.2 (treatment: MLN4924 1 uM, 8 h).

For the sequence AKQTKRMLDMKVNPIQGLASKWDY [COX4I1], the protein stability index was found to be 2.93 ± 0.35 (treatment: DMSO) and 2.72 ± 0.34 (treatment: MLN4924 1 uM, 8 h).

For ALEFWRQEELTRINQSFTGAERKA [IQUB], the protein stability index is, setting by setting: (treatment: DMSO) 3.87 ± 0.52; (treatment: MLN4924 1 uM, 8 h) 3.73 ± 0.43.

Consider ALEQREQDAVDQVKVIMDALDERA [TRIM29], for which the protein stability index reads like this: (treatment: DMSO) 5.33 ± 0.097; (treatment: MLN4924 1 uM, 8 h) 5.31 ± 0.29.

As for ALGIYGAPYAAAAAAQSYPGYLPY [IRX6], the protein stability index was found to be 2.23 ± 0.14 (treatment: DMSO) and 2.19 ± 0.27 (treatment: MLN4924 1 uM, 8 h).

Consider ALGKLLPRETLCTELVLSDCMLSE [LRRC45], for which the protein stability index stood at 2.22 ± 0.32 (treatment: DMSO) and 2.67 ± 0.45 (treatment: MLN4924 1 uM, 8 h).

ALLGYEMVQVACGASHVLALSTER [NEK8] returned a protein stability index (treatment: DMSO) of 2.5 ± 0.88 and a protein stability index (treatment: MLN4924 1 uM, 8 h) of 2.12 ± 0.44.

ALLHQAETLQPSVWFGGREHVLMF [TMEM175]: the protein stability index is 2.28 ± 0.51 (treatment: DMSO) and 1.95 ± 0.5 (treatment: MLN4924 1 uM, 8 h).

ALLQAMKDLDGMDADILGLKKSNS [FBF1]: the protein stability index worked out at 2.83 ± 0.78 (treatment: DMSO) and 2.82 ± 0.29 (treatment: MLN4924 1 uM, 8 h).

Regarding ALRVLAEQNIIPSATNVTCYYQPA [TENT5C], the protein stability index by setting is: (treatment: DMSO) 2.31 ± 0.22; (treatment: MLN4924 1 uM, 8 h) 2.2 ± 0.089.

Take ALVAPLLRLENNHCHIEESEHVLK [VPS39]: the protein stability index is, setting by setting: (treatment: DMSO) 3.26 ± 0.11; (treatment: MLN4924 1 uM, 8 h) 3.32 ± 0.2.
